The results in this text go back to US20170166649A1 (MAX DELBR CK CENTRUM F R MOLEKULARE MEDIZIN IN DER …, published 2017).

In assay [1] the target is T1, human CD269 (BCMA) on human multiple myeloma cells (MM.1S, RPMI-8226) (human, UniProt Q02223 1-184).
T1 construct: whole, on cells; also called BCMA-positive MM.1S cells; CD269-positive MM.1S cells
T1 sequence (looked up): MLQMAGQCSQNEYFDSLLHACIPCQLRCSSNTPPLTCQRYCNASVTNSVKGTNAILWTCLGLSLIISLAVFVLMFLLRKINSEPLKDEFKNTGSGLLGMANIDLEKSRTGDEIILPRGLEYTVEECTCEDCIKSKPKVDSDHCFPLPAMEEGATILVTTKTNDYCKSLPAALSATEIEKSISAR
The assay can be described thus: flow cytometry on MM.1S cells. (In general: Flow cytometry measures light scatter and fluorescence of single cells or particles in a stream.)

For assay [2], the target named is T2, extracellular domain of human CD269 (BCMA, TNFRSF17) (human, UniProt Q02223 4-54).
T2 construct: also called hBCMA; human BCMA
T2 sequence: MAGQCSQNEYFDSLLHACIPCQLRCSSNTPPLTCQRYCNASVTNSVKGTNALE
Put plainly: ELISA of hybridoma J22.9 supernatant on BCMA-coated microtiter plates at the given days of culture.

The target of assay [3] is T2, extracellular domain of human CD269 …. The assay can be described thus: SPR, value printed beside the trace for 90.0 nM BCMA; neither a quantity name nor a unit is printed, and the five values average to the mean Kd of 54 pM of paragraph 196. Background: SPR reads the build-up and loss of mass on a sensor chip optically.
For assay [4] the target is unchanged. The assay can be described thus: SPR, value printed beside the trace for 3.3 nM BCMA; neither a quantity name nor a unit is printed, and the five values average to the mean Kd of 54 pM of paragraph 196.
For assay [5] the target is unchanged. The assay can be described thus: SPR, value printed beside the trace for 10.0 nM BCMA; neither a quantity name nor a unit is printed, and the five values average to the mean Kd of 54 pM of paragraph 196.
Assay [6] has the same target. The assay can be described thus: ELISA on plates coated with human BCMA (1 ug/ml), % of max. Here is the method:
(§1) ELISA was carried out as described herein using BCMA-coated microtiter plates (1 microg/ml).
(§2) Microtiter plates were coated with 1 μg/ml of the extracellular domain of human or cynomolgous BCMA (hBCMA or cyBCMA, respectively). Coated BCMA was detected with serial dilution of J22.9-xi, J22.9-H, J22.9-ISY and J22.9-FSY ranging from 0.26 pM to 500 nM. Binding of antibodies to the coated BCMA was detected with horseradish peroxidase (HRP)-conjugated goat anti-human secondary antibody (Jackson ImmunoResearch, 109-035-098, dilution 1:5,000).
(In general: An ELISA detects its analyte on a solid surface through an enzyme-linked reagent.)

For assay [7] the target is unchanged. Put plainly: SPR, value printed beside the trace for 1.1 nM BCMA; neither a quantity name nor a unit is printed, and the five values average to the mean Kd of 54 pM of paragraph 196.
For assay [8], the target named is T3, extracellular domain of cynomolgous BCMA (cynomolgus, UniProt A0A2K5UD97 1-53).
T3 construct: extracellular domain; also called cyBCMA; cynoBCMA
T3 sequence (A0A2K5UD97 entry or part of it): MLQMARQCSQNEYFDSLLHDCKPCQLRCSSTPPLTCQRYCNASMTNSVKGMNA
Put plainly: ELISA on plates coated with cynomolgus BCMA (1 ug/ml), % of max. As to the method:
as §1, §2

In assay [9] the target is T2, extracellular domain of human CD269 …. Put plainly: SPR; mean Kd of FIG. 1c, initial SPR characterisation (not the n = 3 series of Table 6).
The target in assay [10] is T3, extracellular domain of cynomolgous BCMA. Put plainly: SPR, IgG immobilised, cynomolgus BCMA in mobile phase (n = 2). Here is the method: (§3) FIG. 12: SPR raw data: Binding affinities of the chimeric J22.9-xi and humanized variants to human (A) and cynomolgus (B) BCMA was measured by Surface Plasmon Resonance (SPR) Spectrometry. IgGs were immobilized via amine chemistry to a Proteon GLH sensor chip and binding measured with BCMA in the mobile phase. The order of raw data traces in the graph corresponds to the order to samples listed in the legend of the figure.
(§4) SPR was performed on a ProteonXPR36 using phosphate buffered saline supplemented with 0.005% Tween-20 (PBST). Whole IgG at a concentration of 15 ug/ml was immobilized to a Proteon GLH sensor chip using standard amine chemistry according to the manufacturer's instructions. For binding experiments, human or cynomolgus BCMA in PBST was used as the mobile phase.

Assay [11] concerns the target T2, extracellular domain of human CD269 …. The assay can be described thus: SPR, value printed beside the trace for 30.0 nM BCMA; neither a quantity name nor a unit is printed, and the five values average to the mean Kd of 54 pM of paragraph 196.
Assay [12] shares this target. Put plainly: SPR, IgG immobilised, human BCMA in mobile phase (n = 3). As to the method: as §3, §4
Assay [13] has the same target. Put plainly: complex isolated by size exclusion chromatography and crystallised. Here is the method: (Fab)₂ fragments were generated from full length J22.9-xi IgG by incubation with pepsin. J22.9-xi was passed over a PD-10 buffer exchange column into 50 mM sodium acetate, pH 3.5 and pepsin added at 30 μg per milligram J22.9-xi. Incubation at 37° C. for 2.5 hours was sufficient to completely digest the fragment crystallizable (Fc) region and pepsin was inactivated by exchange over a PD-10 column into PBS (pH 7.2). The reduction of the (Fab)₂ fragments to individual Fabs was accomplished in PBS by addition of 2-Mercaptoethylamine (50 mM) in the presence of 5 mM ethylenediaminetetraacetic acid (EDTA). After incubation for 90 minutes at 37° C., the reduced cysteines were blocked by alkylation with 500 μM iodoacetamide for 30 minutes followed by buffer exchange into fresh PBS. The Fab fragments were combined with 1.5 molar equivalents of purified BCMA and the complexes isolated by size exclusion chromatography on a Superdex 75 16/60 column.
Concentrated complexes were supplemented with 0.5 molar equivalents of pure BCMA to ensure saturation and were subjected to crystallization screening. Initial Fab:BCMA crystallization conditions were identified from commercial screens (Qiagen) in 96-well sitting drop format plates using a Gryphon pipetting robot (200 nl drops) and optimized in 24 well plates in hanging drops (2-3 ul). […]

B1: J22.9-xi-N-glycan (deglycosylated J22.9-xi) (antibody, human IgG1, V domains shown)
VH: QVQLQQSGGGLVQPGGSLKLSCAASGIDFSRYWMSWVRRAPGKGLEWIGEINPDSSTINYAPSLKDKFIISRDNAKNTLYLQMSKVRSEDTALYYCASLYYDYGDAMDYWGQGTSVTVSS
VL: DIVMTQSQRFMTTSVGDRVSVTCKASQSVDSNVAWYQQKPRQSPKALIFSASLRFSGVPARFTGSGSGTDFTLTISNLQSEDLAEYFCQQYNNYPLTFGAGTKLELKR
modifications: N-linked oligosaccharide chains at Asn297 of the heavy chain removed with PNGase F
notes: also called J22.9-xi without N-glycans
As for B1, the binding result in [1] was “binds”.

B2: antibody in the supernatant of mouse hybridoma J22.9 (antibody, V domains shown)
VH: B1 VH
VL: B1 VL
notes: Mouse antibody; also called hybridoma J22.9 supernatant
For B2, the binding result in [2] is “binds”.

B3: chimeric antibody J22.9-xi (antibody, V domains shown)
VH: B1 VH
VL: B1 VL
notes: Full length IgG made in 293-6E cells
One may read the Kd as the constant that tells how readily two partners part at equilibrium. The low end stands for higher affinity, the high end for lower affinity. By EC50 (read off the curve) is commonly meant the concentration needed to bring the measured effect to its halfway point. On to B3, for which the dissociation constant (Kd) turned out to be 0.088 nM in assay [3]; 0.0362 nM in [4]; 0.0555 nM in [5]; 0.021 nM in [7]; 0.054 nM in assay [9]; 2.7 nM in assay [10]. Also, the Kd in assay [11] came out at 0.0695 nM; in assay [12], 0.28 nM. The half-maximal effective concentration (EC50 (read off the curve)) in assay [6] and in [8] was about 0.2 nM in each case.

B4: Fab fragment prepared from J22.9-xi (Fab, V domains shown)
VH: B1 VH
VL: B1 VL
modifications: reduced cysteines blocked by alkylation with iodoacetamide
notes: also called J22.9-xi Fab
B4: in assay [13], the binding result is reported as “binds”.
